± gives the standard deviation of the averaged measurements.
Legend:
MCF7 = experiment: percentage of EdU-negative (G0-arrested) nuclei per well, 72 h; higher = more G0 arrest; settings: reference: sequence is the full UniProt precursor, the tested protein was the secreted form or ectodomain
hTERT-HMEC = experiment: as above; settings: reference: sequence is the full UniProt precursor, the tested protein was the secreted form or ectodomain
[1] = protein concentration 0.0082175 µM
[2] = protein concentration 0.01138 µM
[3] = protein concentration 0.082175 µM
[4] = protein concentration 0.1138 µM
[5] = protein concentration 0.0225 µM
[6] = protein concentration 0.0357143 µM
[7] = protein concentration 0.357143 µM
[8] = protein concentration 0.0075 µM
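Note: secreted proteins added to cultured cells, EdU pulse at the end, nuclei found by Hoechst imaging, EdU status from nuclear versus surrounding ring intensity ratio, PBS as neutral control.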

MRVLGGRCGALLACLLLVLPVSEANFLSKQQASQVLVRKRRANSLLEETKQGNLERECIEELCNKEEAREVFENDPETDYFYPKYLVCLRSFQTGLFTAARQSTNAYPDLRSCVNAIPDQCSPLPCNEDGYMSCKDGKASFTCTCKPGWQGEKCEFDINECKDPSNINGGCSQICDNTPGSYHCSCKNGFVMLSNKKDCKDVDECSLKPSICGTAVCKNIPGDFECECPEGYRYNLKSKSCEDIDECSENMCAQLCVNYPGGYTCYCDGKKGFKLAQDQKSCEVVSVCLPLNLDTKYELLYLAEQFAGVVLYLKFRLPEISRFSAEFDFRTYDSEGVILYAESIDHSAWLLIALRGGKIEVQLKNEHTSKITTGGDVINNGLWNMVSVEELEHSISIKIAKEAVMDINKPGPLFKPENGLLETKVYFAGFPRKVESELIKPINPRLDGCIRSWNLMKQGASGIKEIIQEKQNKHCLVTVEKGSYYPGSGIAQFHIDYNNVSSAEGWHVNVTLNIRPSTGTGVMLALVSGNNTVPFAVSLVDSTSEKSQDILLSVENTVIYRIQALSLCSDQQSHLEFRVNRNNLELSTPLKIETISHEDLQRQLAVLDKAMKAKVATYLGGLPDVPFSATPVNAFYNGCMEVNINGVQLDLDEAISKHNDIRAHSCPSVWKKTKNS
percentage of EdU-negative (MCF7; [1]): 25.6 ± 0.65% | percentage of EdU-negative (MCF7; [2]): 28.4 ± 1.6% | percentage of EdU-negative (MCF7; [3]): 27.3 ± 4.3% | percentage of EdU-negative (MCF7; [4]): 28.2 ± 3.1% | percentage of EdU-negative (hTERT-HMEC; [1]): 4.46 ± 0.51% | percentage of EdU-negative (hTERT-HMEC; [2]): 4.81 ± 0.94% | percentage of EdU-negative (hTERT-HMEC; [3]): 7.16 ± 1.3% | percentage of EdU-negative (hTERT-HMEC; [4]): 5.79 ± 0.86%

MRTADREARPGLPSLLLLLLAGAGLSAASPPAAPRFNVSLDSVPELRWLPVLRHYDLDLVRAAMAQVIGDRVPKWVHVLIGKVVLELERFLPQPFTGEIRGMCDFMNLSLADCLLVNLAYESSVFCTSIVAQDSRGHIYHGRNLDYPFGNVLRKLTVDVQFLKNGQIAFTGTTFIGYVGLWTGQSPHKFTVSGDERDKGWWWENAIAALFRRHIPVSWLIRATLSESENFEAAVGKLAKTPLIADVYYIVGGTSPREGVVITRNRDGPADIWPLDPLNGAWFRVETNYDHWKPAPKEDDRRTSAIKALNATGQANLSLEALFQILSVVPVYNNFTIYTTVMSAGSPDKYMTRIRNPSRK
percentage of EdU-negative (MCF7; [5]): 25.7 ± 0.36% | percentage of EdU-negative (MCF7; protein concentration 0.225 µM): 29.2 ± 3.5% | percentage of EdU-negative (hTERT-HMEC; [5]): 5.28 ± 0.13% | percentage of EdU-negative (hTERT-HMEC; protein concentration 0.225 µM): 7.812 ± 0.044%

MMVVLLGATTLVLVAVAPWVLSAAAGGKNLKSPQKVEVDIIDDNFILRWNRSDESVGNVTFSFDYQKTGMDNWIKLSGCQNITSTKCNFSSLKLNVYEEIKLRIRAEKENTSSWYEVDSFTPFRKAQIGPPEVHLEAEDKAIVIHISPGTKDSVMWALDGLSFTYSLVIWKNSSGVEERIENIYSRHKIYKLSPETTYCLKVKAALLTSWKIGVYSPVHCIKTTVENELPPPENIEVSVQNQNYVLKWDYTYANMTFQVQWLHAFLKRNPGNHLYKWKQIPDCENVKTTQCVFPQNVFQKGIYLLRVQASDGNNTSFWSEEIKFDTEIQAFLLPPVFNIRSLSDSFHIYIGAPKQSGNTPVIQDYPLIYEIIFWENTSNAERKIIEKKTDVTVPNLKPLTVYCVKARAHTMDEKLNKSSVFSDAVCEKTKPGNTSKIWLIVGICIALFALPFVIYAAKVFLRCINYVFFPSLKPSSSIDEYFSEQPLKNLLLSTSEEQIEKCFIIENISTIATVEETNQTDEDHKKYSSQTSQDSGNYSNEDESESKTSEELQQDFV
percentage of EdU-negative (MCF7; [6]): 23.4 ± 0.79% | percentage of EdU-negative (MCF7; [7]): 31.7 ± 1.5% | percentage of EdU-negative (hTERT-HMEC; [6]): 4.55 ± 0.7% | percentage of EdU-negative (hTERT-HMEC; [7]): 5.5 ± 0.82%

MAFPPRRRLRLGPRGLPLLLSGLLLPLCRAFNLDVDSPAEYSGPEGSYFGFAVDFFVPSASSRMFLLVGAPKANTTQPGIVEGGQVLKCDWSSTRRCQPIEFDATGNRDYAKDDPLEFKSHQWFGASVRSKQDKILACAPLYHWRTEMKQEREPVGTCFLQDGTKTVEYAPCRSQDIDADGQGFCQGGFSIDFTKADRVLLGGPGSFYWQGQLISDQVAEIVSKYDPNVYSIKYNNQLATRTAQAIFDDSYLGYSVAVGDFNGDGIDDFVSGVPRAARTLGMVYIYDGKNMSSLYNFTGEQMAAYFGFSVAATDINGDDYADVFIGAPLFMDRGSDGKLQEVGQVSVSLQRASGDFQTTKLNGFEVFARFGSAIAPLGDLDQDGFNDIAIAAPYGGEDKKGIVYIFNGRSTGLNAVPSQILEGQWAARSMPPSFGYSMKGATDIDKNGYPDLIVGAFGVDRAILYRARPVITVNAGLEVYPSILNQDNKTCSLPGTALKVSCFNVRFCLKADGKGVLPRKLNFQVELLLDKLKQKGAIRRALFLYSRSPSHSKNMTISRGGLMQCEELIAYLRDESEFRDKLTPITIFMEYRLDYRTAADTTGLQPILNQFTPANISRQAHILLDCGEDNVCKPKLEVSVDSDQKKIYIGDDNPLTLIVKAQNQGEGAYEAELIVSIPLQADFIGVVRNNEALARLSCAFKTENQTRQVVCDLGNPMKAGTQLLAGLRFSVHQQSEMDTSVKFDLQIQSSNLFDKVSPVVSHKVDLAVLAAVEIRGVSSPDHVFLPIPNWEHKENPETEEDVGPVVQHIYELRNNGPSSFSKAMLHLQWPYKYNNNTLLYILHYDIDGPMNCTSDMEINPLRIKISSLQTTEKNDTVAGQGERDHLITKRDLALSEGDIHTLGCGVAQCLKIVCQVGRLDRGKSAILYVKSLLWTETFMNKENQNHSYSLKSSASFNVIEFPYKNLPIEDITNSTLVTTNVTWGIQPAPMPVPVWVIILAVLAGLLLLAVLVFVMYRMGFFKRVRPPQEEQEREQLQPHENGEGNSET
percentage of EdU-negative (MCF7; [8]): 25.7 ± 3.1% | percentage of EdU-negative (MCF7; protein concentration 0.075 µM): 28.8 ± 2% | percentage of EdU-negative (hTERT-HMEC; [8]): 5.23 ± 0.5% | percentage of EdU-negative (hTERT-HMEC; protein concentration 0.075 µM): 7.03 ± 1%

MTTQLPAYVAILLFYVSRASCQDTFTAAVYEHAAILPNATLTPVSREEALALMNRNLDILEGAITSAADQGAHIIVTPEDAIYGWNFNRDSLYPYLEDIPDPEVNWIPCNNRNRFGQTPVQERLSCLAKNNSIYVVANIGDKKPCDTSDPQCPPDGRYQYNTDVVFDSQGKLVARYHKQNLFMGENQFNVPKEPEIVTFNTTFGSFGIFTCFDILFHDPAVTLVKDFHVDTIVFPTAWMNVLPHLSAVEFHSAWAMGMRVNFLASNIHYPSKKMTGSGIYAPNSSRAFHYDMKTEEGKLLLSQLDSHPSHSAVVNWTSYASSIEALSSGNKEFKGTVFFDEFTFVKLTGVAGNYTVCQKDLCCHLSYKMSENIPNEVYALGAFDGLHTVEGRYYLQICTLLKCKTTNLNTCGDSAETASTRFEMFSLSGTFGTQYVFPEVLLSENQLAPGEFQVSTDGRLFSLKPTSGPVLTVTLFGRLYEKDWASNASSGLTAQARIIMLIVIAPIVCSLSW
percentage of EdU-negative (MCF7; [5]): 26.6 ± 0.41% | percentage of EdU-negative (MCF7; protein concentration 0.225 µM): 26.3 ± 2.3% | percentage of EdU-negative (hTERT-HMEC; [5]): 5.11 ± 0.53% | percentage of EdU-negative (hTERT-HMEC; protein concentration 0.225 µM): 4.83 ± 0.5%

— the supplement of paper PMC11316812
